The test system of data set [1] is homoserine transsuccinylase. Kind of data set: Homoserine transsuccinylase enzyme test using cell extracts, decrease in extinction at 232 nm, with and without L-methionine. The data set is classed as biochemical, E. coli. As to conditions: cell extract of E. coli W3110 transformants; 1 mM homoserine, 0.1 mM succinyl-CoA, 50 mM Tris/Cl pH 7.6. The text has this: Any method which enables the activity of the enzyme to be determined in the presence of L-methionine or SAM can be used for determining the sensitivity of the homoserine transsuccinylase to L-methionine and/or SAM. For example, the homoserine transsuccinylase activity can be determined by following the method described by Kredich and Tomkins for determining the activity of serine acetyltransferases (Kredich N. M. and Tomkins G. M., J. Biol. Chem. 241, 4955-4965 (1966)). The enzyme activity is measured in an assay sample which contains homoserine and succinyl-CoA. The reaction is started by adding enzyme and monitored in a spectrophotometer by way of the decrease in the extinction at 232 nm which results from cleavage of the thioester bond in the succinyl-coenzyme A. The described test is suitable for determining the sensitivity of the homoserine transsuccinylases to methionine. The inhibition of homoserine transsuccinylase activity is tested in the presence of different concentrations of L-methionine in the reaction mixture.
The activity, and the influence of L-methionine on the activity, of the different homoserine transsuccinylases were determined by means of an enzyme test using cell extracts in which the respective proteins had been produced. For this, the corresponding plasmids, encoding altered homoserine transsuccinylases, were introduced, by transformation, into the E. coli strain W3110 (ATCC 27325) using methods known to the skilled person. The transformation mixture was spread on LB-tetracycline agar plates (10 g of tryptone/l, 5 g of yeast extract/l, 5 g of NaCl/l, 15 g of agar/l and 15 mg of tetracycline/l) and incubated at 37° C. overnight. The resulting transformants were grown in SM1 medium (for 1 l of medium: CaCl2×2H2O, 0.0147 g, MgSO4×7H2O, 0.3 g, Na2MoO4×2H2O, 0.15 mg, H3BO3, 2.5 mg, CoCl2×6H2O, 0.7 mg, CuSO4×5H2O, 0.25 mg, MnCl2×4H2O, 1.6 mg, ZnSO4×7H2O, 0.3 mg, KH2PO4, 3.0 g, K2HPO4, 12.0 g, (NH4)2SO4, 5 g, NaCl, 0.6 g, FeSO4×7H2O, 0.002 g, Na3-citrate×2H2O, 1 g, glucose, 5 g, tryptone, 1 g, yeast extract, 0.5 g), centrifuged down at an absorption of approx. 0.8 at 600 nm, washed in 50 mM Tris pH 7.5, and centrifuged down once again. The cells were resuspended in 50 mM Tris/Cl, pH 7.5, 2 mM dithiothreitol, 0.5 mM phenylmethylsulfonyl fluoride and disrupted in a French press. The supernatant from a further centrifugation was used as the enzyme extract in the test. The enzyme activity was determined, in a mixture containing 50 mM Tris/Cl, pH 7.6, 1 mM homoserine and 0.1 mM succinyl-CoA, by photometrically quantifying, by means of the decrease in the extinction at 232 nm, the coenzyme A formed in the reaction, following the method described by Kredich and Tomkins for determining the activity of serine acetyltransferases (Kredich N. M. and Tomkins G. M., J. Biol. Chem. 241, 4955-4965 (1966)). The effect of added L-methionine on the activity was determined and the inhibitability was quantified as a Ki value. The Ki which is determined is the concentration of L-methionine at which the activity of the homoserine transsuccinylase is only 50% of its activity in the absence of L-methionine.

Data set [2] relates to homoserine transsuccinylase. Nature of the data set: Homoserine transsuccinylase activity test (Lee et al.), 5,5'-dithiobis(2-nitrobenzoic acid), absorption at 412 nm, with and without SAM. As to conditions: cell extract; 3 mM homoserine, 0.3 mM succinyl-CoA, 50 mM potassium phosphate buffer pH 7.5. The data set is classed as biochemical, E. coli. How it is done: In order to determine the sensitivity of the activity of the different homoserine transsuccinylases to SAM, it is possible, for example, to carry out an activity test as described in Lee L. W. et al., J. Biol. Chem. 241, 5479-5480 (1966). In this method, the enzyme extract is incubated with homoserine and succinyl-CoA. After various times, a part of the test assay sample is stopped by adding it to a mixture of ethanol, water, and 5,5′-dithiobis(2-nitrobenzoic acid). The absorption is determined photometrically at 412 nm. The described test is suitable, for example, for determining the sensitivity of the homoserine transsuccinylases to SAM.
The influence of SAM on the activities of the different homoserine transsuccinylases was determined by quantifying the activity in the presence of different concentrations of SAM (Cl salt, Sigma). The cell extracts were grown and prepared as described in Example 3. The activity test was carried out as described in Lee L. W. et al., J. Biol. Chem. 241, 5479-5480 (1966), with the enzyme extract being incubated with 50 mM potassium phosphate buffer, pH 7.5, 3 mM homoserine and 0.3 mM succinyl-CoA. After various times, 100 μl volumes of test mixture were stopped by adding them in each case to a mixture of 400 μl of ethanol, 400 μl of water and 100 μl of 10 mM 5,5′-dithiobis(2-nitrobenzoic acid). After the resulting mixture had been incubated at room temperature for 5 minutes, the absorption was determined photometrically at 412 nm. After the protein concentration had been determined, the enzyme activity was calculated using the extinction coefficient. The Ki was determined as a measure of the ability of SAM to inhibit the activity.

B1: pKP413GAP: E. coli wild-type homoserine transsuccinylase (MetA; Asp101, Tyr294) expressed from starting plasmid pKP413GAP (protein, UniProt P07623 2-309, looked up)
Homoserine …: PIRVPDELPAVNFLREENVFVMTTSRASGQEIRPLKVLILNLMPKKIETENQFLRLLSNSPLQVDIQLLRIDSRESRNTPAEHLNNFYCNFEDIQDQNFDGLIVTGAPLGLVEFNDVAYWPQIKQVLEWSKDHVTSTLFVCWAVQAALNILYGIPKQTRTEKLSGVYEHHILHPHALLTRGFDDSFLAPHSRYADFPAALIRDYTDLEILAETEEGDAYLFASKDKRIAFVTGHPEYDAQTLAQEFFRDVEAGLDPDVPYNYFPHNDPQNTPRASWRSHGNLLFTNWLNYYVYQITPYDLRHMNPTLD
For the molecule B1, the results for the “Activity (U/mg)” value in data set [1] and in data set [2] were 0.155 U/mg and 0.62 U/mg, respectively.

B2: pSLmetA*L: MetA variant with Leu instead of Tyr at position 294 (protein, UniProt P07623 2-309, looked up, variant Y294L)
Homoserine …: PIRVPDELPAVNFLREENVFVMTTSRASGQEIRPLKVLILNLMPKKIETENQFLRLLSNSPLQVDIQLLRIDSRESRNTPAEHLNNFYCNFEDIQDQNFDGLIVTGAPLGLVEFNDVAYWPQIKQVLEWSKDHVTSTLFVCWAVQAALNILYGIPKQTRTEKLSGVYEHHILHPHALLTRGFDDSFLAPHSRYADFPAALIRDYTDLEILAETEEGDAYLFASKDKRIAFVTGHPEYDAQTLAQEFFRDVEAGLDPDVPYNYFPHNDPQNTPRASWRSHGNLLFTNWLNYYVLQITPYDLRHMNPTLD
Consider B2, for which the “Activity (U/mg)” value came out at 0.070 U/mg in data set [1] and 0.29 U/mg in data set [2].

B3: pSLmetA*Q: MetA variant with Gln instead of Tyr at position 294 (protein, UniProt P07623 2-309, looked up, variant Y294Q)
Homoserine …: PIRVPDELPAVNFLREENVFVMTTSRASGQEIRPLKVLILNLMPKKIETENQFLRLLSNSPLQVDIQLLRIDSRESRNTPAEHLNNFYCNFEDIQDQNFDGLIVTGAPLGLVEFNDVAYWPQIKQVLEWSKDHVTSTLFVCWAVQAALNILYGIPKQTRTEKLSGVYEHHILHPHALLTRGFDDSFLAPHSRYADFPAALIRDYTDLEILAETEEGDAYLFASKDKRIAFVTGHPEYDAQTLAQEFFRDVEAGLDPDVPYNYFPHNDPQNTPRASWRSHGNLLFTNWLNYYVQQITPYDLRHMNPTLD
Regarding B3, the “Activity (U/mg)” value in data set [1] came to 0.065 U/mg; in data set [2] it was 0.21 U/mg.

B4: pSLmetA*P: MetA variant with Pro instead of Tyr at position 294 (protein, UniProt P07623 2-309, looked up, variant Y294P)
Homoserine …: PIRVPDELPAVNFLREENVFVMTTSRASGQEIRPLKVLILNLMPKKIETENQFLRLLSNSPLQVDIQLLRIDSRESRNTPAEHLNNFYCNFEDIQDQNFDGLIVTGAPLGLVEFNDVAYWPQIKQVLEWSKDHVTSTLFVCWAVQAALNILYGIPKQTRTEKLSGVYEHHILHPHALLTRGFDDSFLAPHSRYADFPAALIRDYTDLEILAETEEGDAYLFASKDKRIAFVTGHPEYDAQTLAQEFFRDVEAGLDPDVPYNYFPHNDPQNTPRASWRSHGNLLFTNWLNYYVPQITPYDLRHMNPTLD
As to B4, the “Activity (U/mg)” value is 0.020 U/mg in data set [1] and 0.15 U/mg in data set [2].

B5: pKP446: MetA variant with Cys instead of Tyr at position 294 (protein, UniProt P07623 2-309, looked up, variant Y294C)
Homoserine …: PIRVPDELPAVNFLREENVFVMTTSRASGQEIRPLKVLILNLMPKKIETENQFLRLLSNSPLQVDIQLLRIDSRESRNTPAEHLNNFYCNFEDIQDQNFDGLIVTGAPLGLVEFNDVAYWPQIKQVLEWSKDHVTSTLFVCWAVQAALNILYGIPKQTRTEKLSGVYEHHILHPHALLTRGFDDSFLAPHSRYADFPAALIRDYTDLEILAETEEGDAYLFASKDKRIAFVTGHPEYDAQTLAQEFFRDVEAGLDPDVPYNYFPHNDPQNTPRASWRSHGNLLFTNWLNYYVCQITPYDLRHMNPTLD
In the case of B5, the entries for the “Activity (U/mg)” value in data set [1] and in data set [2] were 0.133 U/mg and 0.49 U/mg, respectively.

B6: pSLmetA*A: MetA variant with Ala instead of Tyr at position 294 (protein, UniProt P07623 2-309, looked up, variant Y294A)
Homoserine …: PIRVPDELPAVNFLREENVFVMTTSRASGQEIRPLKVLILNLMPKKIETENQFLRLLSNSPLQVDIQLLRIDSRESRNTPAEHLNNFYCNFEDIQDQNFDGLIVTGAPLGLVEFNDVAYWPQIKQVLEWSKDHVTSTLFVCWAVQAALNILYGIPKQTRTEKLSGVYEHHILHPHALLTRGFDDSFLAPHSRYADFPAALIRDYTDLEILAETEEGDAYLFASKDKRIAFVTGHPEYDAQTLAQEFFRDVEAGLDPDVPYNYFPHNDPQNTPRASWRSHGNLLFTNWLNYYVAQITPYDLRHMNPTLD
On to B6, for which the figures for the “Activity (U/mg)” value in data set [1] and in data set [2] were 0.063 U/mg and 0.26 U/mg, respectively.

B7: pSLmetA*K: MetA variant with Lys instead of Tyr at position 294 (protein, UniProt P07623 2-309, looked up, variant Y294K)
Homoserine …: PIRVPDELPAVNFLREENVFVMTTSRASGQEIRPLKVLILNLMPKKIETENQFLRLLSNSPLQVDIQLLRIDSRESRNTPAEHLNNFYCNFEDIQDQNFDGLIVTGAPLGLVEFNDVAYWPQIKQVLEWSKDHVTSTLFVCWAVQAALNILYGIPKQTRTEKLSGVYEHHILHPHALLTRGFDDSFLAPHSRYADFPAALIRDYTDLEILAETEEGDAYLFASKDKRIAFVTGHPEYDAQTLAQEFFRDVEAGLDPDVPYNYFPHNDPQNTPRASWRSHGNLLFTNWLNYYVKQITPYDLRHMNPTLD
With B7, the “Activity (U/mg)” value was found to be 0.048 U/mg in data set [1] and 0.14 U/mg in data set [2].

B8: pSLmetA*0: MetA variant in which amino acid 294 is deleted (protein, UniProt P07623 2-309, looked up, variant Y294*)
Homoserine …: PIRVPDELPAVNFLREENVFVMTTSRASGQEIRPLKVLILNLMPKKIETENQFLRLLSNSPLQVDIQLLRIDSRESRNTPAEHLNNFYCNFEDIQDQNFDGLIVTGAPLGLVEFNDVAYWPQIKQVLEWSKDHVTSTLFVCWAVQAALNILYGIPKQTRTEKLSGVYEHHILHPHALLTRGFDDSFLAPHSRYADFPAALIRDYTDLEILAETEEGDAYLFASKDKRIAFVTGHPEYDAQTLAQEFFRDVEAGLDPDVPYNYFPHNDPQNTPRASWRSHGNLLFTNWLNYYVQITPYDLRHMNPTLD
For the molecule B8, the “Activity (U/mg)” value came out at 0.085 U/mg in data set [1] and 0.33 U/mg in data set [2].

For the origin of these results see patent US7371551B1, “Feedback-resistant homoserine transsuccinylases” (priority 2002, dated 2008).
